This is an account of results in the MegaScale stability set (Tsuboyama et al. 2023).

B1: EEHEE_rd4_0763 (parent)
chain: LTVHVGNVTYHFDNPEQAEEWAKRMAKKYQGQIHVKDGQFRIE

This data set covers variants of B1. Description: folding stability dG (cDNA display proteolysis); higher = more stable. The settings on record: PBS, room temperature.
In the case of LTVHVGNVTYHFDNREQAEEWAKRMAKKYQGQIHVKDGQFRIE [P15R], the “folding stability dG” value was found to be 1.88 kcal/mol.
With LTVHVGNVTYHFDNFEQAEEWAKRMAKKYQGQIHVKDGQFRIE [P15F] the figure was 1.94 kcal/mol.
With LTVHVGNVTYHFDNTEQAEEWAKRMAKKYQGQIHVKDGQFRIE [P15T] the figure was 1.58 kcal/mol; with LTVHVGNVTYHFDMPEQAEEWAKRMAKKYQGQIHVKDGQFRIE [N14M], 1.31 kcal/mol.
The same measure for LTVHVGNVTYHFDNPEQAEEWAKRMAKKYQGQGHVKDGQFRIE [I33G]: 0.819 kcal/mol; for LTVHVGNVTYHFDNPEQAEEWAKRMAKKYQGQKHVKDGQFRIE [I33K]: 0.715 kcal/mol.
In the case of LTVHVGNVTYHFDNPEQAEEWAKRMAKKYQGQRHVKDGQFRIE [I33R], the “folding stability dG” value was 0.644 kcal/mol.
With LTVHVGNVTYHFDNPEQAEEWAKRMAKKYQGQAHVKDGQFRIE [I33A] the figure was 1.03 kcal/mol.
For LTVHVGNVTYHFDNPEQAEEWAKRMAKKYQGQQHVKDGQFRIE [I33Q], the “folding stability dG” value stood at 0.795 kcal/mol.
With LTVHVGNVTYHFDNPEQAEEWAKRMAKKYQGQDHVKDGQFRIE [I33D] the figure was 0.877 kcal/mol.
The same measure for LTVHVGNVTYHFDNPEQAEEWAKRMAKKYQGQIHVKDGQMRIE [F40M]: 1.74 kcal/mol.
With LTVHVGNVTYHFDNPEQAEEWAKRMAKKYQGQIHVKDGQNRIE [F40N] the figure was 1.14 kcal/mol; with LTVHVGNVTYHFDNPEQAEEWAKRMAKKYQGQIHVKDGQQRIE [F40Q], 0.978 kcal/mol; with LTVHVGNVTYHFHNPEQAEEWAKRMAKKYQGQIHVKDGQFRIE [D13H], 1.37 kcal/mol.
With LTVHVGNVTYHFVNPEQAEEWAKRMAKKYQGQIHVKDGQFRIE [D13V], the “folding stability dG” value stood at 1.46 kcal/mol.
Take LTVHVGNVTYHFDNPLQAEEWAKRMAKKYQGQIHVKDGQFRIE [E16L]: the “folding stability dG” value turned out to be 1.68 kcal/mol.
For the variant LTVHVGNVTYHFDNPCQAEEWAKRMAKKYQGQIHVKDGQFRIE [E16C], the “folding stability dG” value is 2.54 kcal/mol.
With LTVHVGNVTYHFDNPPQAEEWAKRMAKKYQGQIHVKDGQFRIE [E16P] the figure was 0.809 kcal/mol; with LTVHVGNVTYHFDNPMQAEEWAKRMAKKYQGQIHVKDGQFRIE [E16M], 1.66 kcal/mol; with LTVHVGNVTYHFDNPEQAEEWAKRMAKKYQGQIEVKDGQFRIE [H34E], 1.5 kcal/mol.
With LTVHVGNVTYHFDNPEQAEEWAKRMAKKYQGQIRVKDGQFRIE [H34R] the figure was 1.55 kcal/mol.
On to LTVHVGNVTVHFDNPEQAEEWAKRMAKKYQGQIHVKDGQFRIE [Y10V], for which the “folding stability dG” value was 0.913 kcal/mol.
For the variant LTVHVGNVTEHFDNPEQAEEWAKRMAKKYQGQIHVKDGQFRIE [Y10E], the “folding stability dG” value was 0.183 kcal/mol.
LTVHVGNVTTHFDNPEQAEEWAKRMAKKYQGQIHVKDGQFRIE [Y10T]: the “folding stability dG” value worked out at 0.369 kcal/mol.
In the case of LTVHVGNVTDHFDNPEQAEEWAKRMAKKYQGQIHVKDGQFRIE [Y10D], the “folding stability dG” value amounted to 0.031 kcal/mol.
The same measure for LTVHVGNVTYHIDNPEQAEEWAKRMAKKYQGQIHVKDGQFRIE [F12I]: 0.276 kcal/mol.
The same measure for LTVHVGNVTYHMDNPEQAEEWAKRMAKKYQGQIHVKDGQFRIE [F12M]: 0.22 kcal/mol; for LTVHVYNVTYHFDNPEQAEEWAKRMAKKYQGQIHVKDGQFRIE [G6Y]: 1.5 kcal/mol; for LTVHVLNVTYHFDNPEQAEEWAKRMAKKYQGQIHVKDGQFRIE [G6L]: 1.47 kcal/mol.
With LTVHVGNVTYHFDNPEQAEEWAKRMAKPYQGQIHVKDGQFRIE [K28P] the figure was 0.519 kcal/mol; with LTVHVGNVTYHFDNPEQAEEWAKRMAKHYQGQIHVKDGQFRIE [K28H], 1.53 kcal/mol.
For LTVHVGNVTYHFDNPEQAEEWAKRMAKVYQGQIHVKDGQFRIE [K28V], the “folding stability dG” value is 1.43 kcal/mol.
On to LTVHVGNVTYHFDNPEQAEEWAKRMAKQYQGQIHVKDGQFRIE [K28Q], for which the “folding stability dG” value was 1.35 kcal/mol.
Turning to LTVHVGNVTYHFDNPENAEEWAKRMAKKYQGQIHVKDGQFRIE [Q17N], the “folding stability dG” value came to 1.38 kcal/mol.
The same measure for LTVHVGNVTYHFDNPEWAEEWAKRMAKKYQGQIHVKDGQFRIE [Q17W]: 1.54 kcal/mol.
With LTVDVGNVTYHFDNPEQAEEWAKRMAKKYQGQIHVKDGQFRIE [H4D], the “folding stability dG” value was 0.78 kcal/mol.
On to LTVVVGNVTYHFDNPEQAEEWAKRMAKKYQGQIHVKDGQFRIE [H4V], for which the “folding stability dG” value amounted to 1.97 kcal/mol.
LTVGVGNVTYHFDNPEQAEEWAKRMAKKYQGQIHVKDGQFRIE [H4G]: the “folding stability dG” value came out at 0.951 kcal/mol.
The same measure for LTVKVGNVTYHFDNPEQAEEWAKRMAKKYQGQIHVKDGQFRIE [H4K]: 1.68 kcal/mol.
The same measure for LTFHVGNVTYHFDNPEQAEEWAKRMAKKYQGQIHVKDGQFRIE [V3F]: 1.03 kcal/mol; for LTEHVGNVTYHFDNPEQAEEWAKRMAKKYQGQIHVKDGQFRIE [V3E]: 0.235 kcal/mol; for LTVHVGNVTYHFDNPEQAEEWQKRMAKKYQGQIHVKDGQFRIE [A22Q]: 0.611 kcal/mol.
The same measure for LTVHVGNVTYHFDNPEQAEEWSKRMAKKYQGQIHVKDGQFRIE [A22S]: 0.821 kcal/mol; for LTVHVGNVTYHFDNPEQAEEWYKRMAKKYQGQIHVKDGQFRIE [A22Y]: 1.06 kcal/mol; for LTVHVGNVTYHFDNPEQAEEWAKRMAKKYQGQIHVKDGQFVIE [R41V]: 2.45 kcal/mol.
With LTVHVGGVTYHFDNPEQAEEWAKRMAKKYQGQIHVKDGQFRIE [N7G], the “folding stability dG” value was 1.71 kcal/mol.
With LTVHVGAVTYHFDNPEQAEEWAKRMAKKYQGQIHVKDGQFRIE [N7A] the figure was 1.6 kcal/mol; with LTVHVGNVTYHFDNPEQAEEWALRMAKKYQGQIHVKDGQFRIE [K23L], 1.69 kcal/mol; with LTVHVGNVTYHFDNPEQAEEWAQRMAKKYQGQIHVKDGQFRIE [K23Q], 1.55 kcal/mol.
With LTVHVGNVTYHFDNPEQAEEWANRMAKKYQGQIHVKDGQFRIE [K23N] the figure was 1.38 kcal/mol; with LTVHVGNVTYHFDNPEQAEEWAIRMAKKYQGQIHVKDGQFRIE [K23I], 1.76 kcal/mol.
With LTVHVGNVTYHFDNPEQAEEWAKRAAKKYQGQIHVKDGQFRIE [M25A] the figure was 0.874 kcal/mol.
As for LTVHVGNVTYHFDNPEQAEEWAKRKAKKYQGQIHVKDGQFRIE [M25K], the “folding stability dG” value turned out to be 0.502 kcal/mol.
The same measure for LTVHVGNVTYHFDNPEQAEEWAKRHAKKYQGQIHVKDGQFRIE [M25H]: 0.756 kcal/mol; for LTVHVGNVTYHFDNPEQAEEWAKRSAKKYQGQIHVKDGQFRIE [M25S]: 0.407 kcal/mol.
On to LTVHVGNVTYHFDNPEQAEEWAKRYAKKYQGQIHVKDGQFRIE [M25Y], for which the “folding stability dG” value came to 1.45 kcal/mol.
With LTVHVGNVTYHFDNPEQAEEWAKRIAKKYQGQIHVKDGQFRIE [M25I] the figure was 1.44 kcal/mol; with LTVHVGNVTYHFDNPEQAEVWAKRMAKKYQGQIHVKDGQFRIE [E20V], 1.35 kcal/mol; with LTVHVGNPTYHFDNPEQAEEWAKRMAKKYQGQIHVKDGQFRIE [V8P], 0.43 kcal/mol.
